Measured values from publication PMC5882645, “NMR Structure, Dynamics and Interactions of the Integrin β2 Cytoplasmic Tail with Filamin Domain IgFLNa21” (Scientific Reports, 2018).
No end group written: not given here.

T1: IgFLNa21 domain of filamin A (Gly2236-Ser2329) (UniProt P21333 2236-2329)
T1 construct: filamin A, Ig-like repeat 21 (IgFLNa21), residues Gly2236-Ser2329; The same range also stands as the C-terminal part of the hybrid chain m5 (cloned in pET14b); the rows on the hybrid use m1 for this domain; also called IgFLNa21 filamin; wild-type IgFLNa21; source: E. coli rosetta, synthetic gene in pET24a, 15N/13C-labelled, purified (Ni-NTA, size-exclusion chromatography)
T1 sequence (looked up): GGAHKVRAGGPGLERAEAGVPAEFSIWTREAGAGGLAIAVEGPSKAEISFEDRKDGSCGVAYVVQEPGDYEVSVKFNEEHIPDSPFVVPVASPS


Experiments:
[1] = target: T1, IgFLNa21 domain of filamin A …; assay: NMR titration; 15N-1H HSQC of IgFLNa21 (100 μM) with sequential additions of peptide at 1:0, 1:1, 1:2 and 1:3 ratios; 298 K; 25 mM sodium phosphate, 5 mM NaCl, 2 mM DTT, 10% D2O, pH 6.5; settings: both partners purified
[2] = target: T1, IgFLNa21 domain of filamin A …; assay: NMR structure; solution structure of the hybrid chain (β2 CT 752-763 joined to IgFLNa21 by the linker …), 300 μM, 298 K; CYANA, refined by X-plor-NIH with explicit water; settings: both partners purified

Row | Binder | binding result [1] | binding result [2]
1 | KALIHLSDLREYRRFEKEKLKSQWNNDNPLFKSATTTVMNPKFAES (peptide, UniProt P05107 724-769, looked up, integrin β2 cytoplasmic tail, residues 724-769; also called full length integrin β2 CT; integrin β2 cytoplasmic tail; source: synthetic peptide, bought: GLBioChem (Shanghai), further purified by reverse phase HPLC) [Synthetic integrin full-length β2-CT (residues 724-769)] | binds | –
2 | PLFKSATTTVMN (also: fused via GASGSGASGS linker to IgFLNa21 N-terminus, also called β2 CT peptide; β2 CT part of hybrid IgFLNa21; source: E. coli rosetta, purified (Ni-NTA, size-exclusion chromatography) as the N-terminal part of the hybrid chain) [C-terminal filamin-binding region (P752-N763) of integrin β2 CT, as it stands in the hybrid IgFLNa21] | – | binds
